Measured values as given in the supplement of paper PMC10567573.
± gives the standard deviation.

Assay: protein stability index of a GFP-peptide fusion (GPS, HEK-293T) (PSI 1-6); higher = more stable
[1] = treatment: DMSO, c terminus: a fixed tail appended
[2] = treatment: MLN4924 1 uM, 8 h, c terminus: a fixed tail appended
[3] = treatment: DMSO, c terminus: native
[4] = treatment: MLN4924 1 uM, 8 h, c terminus: native
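Also: 24-mer peptide tiles fused after GFP, lentivirally expressed, FACS-sorted into six equal bins by GFP/DsRed ratio, decoded by Illumina sequencing, PSI is the read-weighted mean bin number.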

| Sequence | protein stability index [1] | protein stability index [2] | protein stability index [3] | protein stability index [4] |
| --- | --- | --- | --- | --- |
| QPKKLHLCPLCGKNFSNNSNLIRH [ZNF263] | 3.02 ± 0.39 | 3.37 ± 0.64 | – | – |
| RWCCCCGERETRTPEELTILGETQ [CLCN6] | 3.76 ± 0.27 | 3.79 ± 0.18 | – | – |
| FRHDRLRFRDFVDALEDSLEEVAV [PBXIP1] | 3.04 ± 0.47 | 3.48 ± 0.3 | – | – |
| PASRRRVVEEVRRRATSGGKWPQV [LPCAT4] | 3.99 ± 0.17 | 3.82 ± 0.23 | – | – |
| GLAGYLSGYDGTFLFQKPGDKYEH [POMT2] | 2.62 ± 0.7 | 2.91 ± 0.6 | – | – |
| KGDVEEVQGPGVVGEFPIISPGRV [FBXO3] | 4.81 ± 0.27 | 4.8 ± 0.2 | – | – |
| FLVFVIVLFFIYHFMQAEEGNPF [EMD] | – | – | 2.94 ± 0.44 | 2.83 ± 0.17 |
| VFHLPFYSSNQLHHFFCDIAPVLK [OR10K2] | 2.23 ± 0.48 | 2.12 ± 0.15 | – | – |
| RNGQWSEPPKCLDPCVISQEIMEK [CFHR2] | 4.24 ± 0.063 | 4.07 ± 0.24 | – | – |
| GEPLALPLDAGEYCVPRGNRRRFR [BEX1] | 4.8 ± 0.27 | 4.99 ± 0.25 | – | – |
| AFHDGQRSRLRPRDDLDRLGVFLD [TRIM14] | 3.35 ± 0.26 | 3.66 ± 0.31 | – | – |
| KTEAEIAHIALETLEGHQRAIMAH [FLOT1] | 4.1 ± 0.12 | 4.06 ± 0.3 | – | – |
| PGYLPGAMPPYGQGPPMVPPYQGG [ZNF207] | 3.57 ± 0.2 | 3.42 ± 0.2 | – | – |
| NESRYMIYEFWENSSVWNSHLQTN [NECAB1] | 2.26 ± 0.26 | 2.24 ± 0.23 | – | – |
| TLQDLVFDECGITDDQLLALLPSL [PRAME] | 2.84 ± 0.26 | 3.03 ± 0.34 | – | – |
| TMSRSLDGASVNENHEIYMKDSMS [EPB41L3] | 5 ± 0.17 | 4.72 ± 0.43 | – | – |
| SFSEETEKKFEHFSGLLNNQLSPQ [LOXL2] | 4.09 ± 0.47 | 4.56 ± 0.18 | – | – |
| EFMKDRLYFATLRNRPKSTVNTHY [CDC14A] | 2.11 ± 0.23 | 2.17 ± 0.59 | – | – |
| FSGQIRLNEDTIQDVVQAADLLLL [GAN] | 2.27 ± 0.24 | 2.3 ± 0.43 | – | – |
| FSQLEDKFPGQSSFLWQRGRKFLQ [TOR1AIP2] | 2.69 ± 0.22 | 2.75 ± 0.34 | – | – |
| AVLGRYVPGLLLSYLMLVTVMMWP [RETREG3] | 3.41 ± 0.13 | 3.1 ± 0.47 | – | – |
| GSELKDSIPVTELSASGPFESHDL [POMP] | 5.28 ± 0.34 | 5.18 ± 0.57 | – | – |

| Sequence | protein stability index [1] | protein stability index [2] | protein stability index [3] | protein stability index [4] |
| --- | --- | --- | --- | --- |
| ILGGSGPVRKLYDDCSSTIVEDPQ [ESRRG] | 4.37 ± 0.3 | 4.41 ± 0.3 | – | – |
| SQEEGKSALEDQGSNPSSSNSSQD [PPFIA4] | 5.67 ± 0.16 | 5.62 ± 0.28 | – | – |
| HVDPEEPWSPCSARFITDFLDNGY [ADAMTS4] | 2.57 ± 0.39 | 2.88 ± 0.71 | – | – |
| WTLRRTKELRKDYQGPGTRRLQEV [DYRK1B] | 3.11 ± 0.32 | 3.1 ± 0.32 | – | – |
| PHCSDLMPSGSEEKILRELSEEEE [KCNA4] | 5.64 ± 0.23 | 5.56 ± 0.24 | – | – |
| LQTVTREKEELLQLSIERGKVLQN [CCDC89] | 4.13 ± 0.25 | 4.42 ± 0.26 | – | – |
| QFEPQLTLWDVFGANKEVQELLER [RSAD1] | 3.24 ± 0.26 | 3.8 ± 0.47 | – | – |
| KLLDHDNVKYLKKILDELEKVLDQ [GDAP1] | 2.42 ± 0.56 | 2.32 ± 0.47 | – | – |
| MEAAREGHEEMVALLLGQGANINA [ANKRD17] | 4.16 ± 0.17 | 4.15 ± 0.24 | – | – |
| QKEGEFSTCFTELQRDFLKQRPTK [OAS1] | 4.26 ± 0.45 | 4.22 ± 0.3 | – | – |
| HCTTVDGQRQLMVPARDGTSCKLT [ADAMTSL2] | 4.41 ± 0.2 | 4.44 ± 0.11 | – | – |
| MGFAAKAMKSVHENMDLNKIDDLM [CHMP4C] | 3.59 ± 0.32 | 3.48 ± 0.3 | – | – |
| LEYLYTDSCCPAGIFQAMCLLICA [RHOBTB3] | 3.08 ± 0.45 | 3.19 ± 0.55 | – | – |
| TNIRLPNVPSSSLPAQPNRKPGMS [CHMP4C] | 4.66 ± 0.28 | 4.51 ± 0.45 | – | – |
| TADISSHFQEAIDFIDCVREKGGK [DUSP5] | 4.4 ± 0.26 | 4.7 ± 0.22 | – | – |
| ADNKIVSHLLVAEPEKIYAMPDPT [ESRRG] | 4.23 ± 0.17 | 4.22 ± 0.27 | – | – |
| GTARYMSINTHLGKEQSRRDDLEA [CSNK1G3] | 4.75 ± 0.42 | 4.63 ± 0.16 | – | – |
| NTAKSTSRVTAFLDDLSQKLKPLG [NLN] | 3.42 ± 0.15 | 3.35 ± 0.044 | – | – |
| SEEALRADGFGDNPFYHCLVAEIL [SAT2] | 3.08 ± 0.24 | 3.26 ± 0.25 | – | – |
| RTIVKGYNENVYTEDGKLDIWSKS [MED27] | 3.84 ± 0.35 | 3.91 ± 0.3 | – | – |
| LEVINLLRKHRELCDVVLVVGAKK [KLHL20] | 2.37 ± 0.48 | 2.41 ± 0.34 | – | – |
| YVTPSDFDQLKQFLTFDKQVLRFY [EFHC1] | 2.03 ± 0.32 | 2.28 ± 0.29 | – | – |

| Sequence | protein stability index [1] | protein stability index [2] | protein stability index [3] | protein stability index [4] |
| --- | --- | --- | --- | --- |
| IYSTKLYRFFKYIENRDVAKSVLK [BTBD10] | 3.1 ± 0.97 | 2.37 ± 0.61 | – | – |
| TKFGLFTPGSRIESILMSLPLTAR [CPOX] | 2.21 ± 0.3 | 2.2 ± 0.28 | – | – |
| YFFLYQYCSIHCSDRKQVRNIAN [CSTF3] | – | – | 3.03 ± 1.1 | 3.22 ± 0.71 |
| IMELTGGGQESSGLNLGKKISVPR [MYOZ1] | 3.58 ± 0.19 | 3.83 ± 0.33 | – | – |
| MVATANNRQTFVNSAIRFLRKYSF [CHIT1] | 2.65 ± 0.19 | 2.63 ± 0.14 | – | – |
| GRCTVRDFIHRHCQDQNVPVENFF [SDE2] | 2.51 ± 0.4 | 2.72 ± 0.049 | – | – |
| LGIPYYETSVVAQFGIKDVFDNAI [RHOBTB2] | 2.17 ± 0.18 | 2.14 ± 0.23 | – | – |
| VHEFCAGRECQPRWETSSWSECSR [ADAMTSL2] | 2.42 ± 0.28 | 2.85 ± 0.53 | – | – |
| SEEQVSKNLFGPPLESAFDHEDFT [FCHO1] | 5.22 ± 0.4 | 5.26 ± 0.21 | – | – |
| RAPPKRKRKRVKQRINTYVFVGNQ [PCMTD1] | 3.53 ± 0.15 | 3.41 ± 0.43 | – | – |
| VDPDNVVLCLLAADEDDDRDVALQ [GADD45A] | 4.63 ± 0.38 | 4.77 ± 0.08 | – | – |
| YFVSESFEDAKEKMREFTKTIKRP [TPH1] | 3.15 ± 0.19 | 3.41 ± 0.14 | – | – |
| CTAGNFMECQPESSISHRFHKDCA [EHMT1] | 2.96 ± 0.25 | 3.03 ± 0.27 | – | – |
| ALPDSVLRRFVVRTMCAVLGLVAR [AUP1] | 2.51 ± 0.21 | 2.32 ± 0.44 | – | – |
| MKQGGAALEGSALANGRALSAGSP [DLX1] | 4.67 ± 0.29 | 4.72 ± 0.13 | – | – |
| SVIKNYEDHFPLLFSEASECMLLV [MAGEA10] | 3.3 ± 0.74 | 2.33 ± 0.046 | – | – |
| RAAYQQVIQPALPGQPLPGASVRG [TRAF3IP2] | 4.36 ± 0.35 | 4.18 ± 0.32 | – | – |
| FTIHNYSHSRERPYKCVQPDCGKA [PLAGL1] | 2.86 ± 0.45 | 2.89 ± 0.37 | – | – |
| NLTSNEGHSLKNLEHRLNEMERTQ [RASAL3] | 4.28 ± 0.32 | 4.26 ± 0.25 | – | – |
| PKEATVMCEQCDVFYCDPCRLRCH [TRIM9] | 3.65 ± 0.28 | 3.82 ± 0.42 | – | – |
| QDFLLFSPEVESLPVASSSTLLPL [NFE2L1] | 3.34 ± 0.79 | 3.37 ± 0.57 | – | – |
| PLVTAIEIVSIWILSFILAIPEAI [EDNRA] | 3.48 ± 0.8 | 3.68 ± 0.15 | – | – |

| Sequence | protein stability index [1] | protein stability index [2] | protein stability index [3] | protein stability index [4] |
| --- | --- | --- | --- | --- |
| TENEEQTQLTQNAVSCPYLPSNLL [KCNA4] | 4.49 ± 0.27 | 4.63 ± 0.12 | – | – |
| NTEVPARNLYAYIQKLTQIETGEN [PTPRD] | 3.39 ± 0.22 | 3.37 ± 0.37 | – | – |
| VTINIQDLLSCSNFAVQHRYLFEE [MATN2] | 2.86 ± 0.35 | 2.87 ± 0.73 | – | – |
| LTLYNPTGTALRFRVLCTAPAKYT [MOSPD3] | 2.79 ± 0.65 | 2.69 ± 0.48 | – | – |
| LGHSPVLRNITNSQAPDGRRKSEA [CDC25B] | 3.77 ± 0.4 | 4.22 ± 0.48 | – | – |
| GPTSSNPRKRHREDSDVEMVEDDS [MLH1] | 5.32 ± 0.13 | 5.22 ± 0.6 | – | – |
| SQEAGLPAGAGPSPTFPALGIGMD [SEPHS2] | 4.64 ± 0.22 | 4.65 ± 0.25 | – | – |
| SLIPPRSEQLVNFTGKAEMGGPFS [TMEM106C] | 3.65 ± 0.34 | 3.47 ± 0.3 | – | – |
| RTPEILKKALSGLSSRWKNWWIRG [CDS1] | 2.49 ± 0.86 | 2.26 ± 0.73 | – | – |
| SAVARSNSWMGSQGPMSQRRENYG [RBMY1A1] | 3.68 ± 0.43 | 3.96 ± 0.5 | – | – |
| ADCVRGPDGVCLSGGRGPQGDKAI [PBXIP1] | 4.52 ± 0.57 | 4.78 ± 0.22 | – | – |
| MTVPATAIYFTAYDQLKAFLCGRA [SLC25A39] | 2.35 ± 0.51 | 2.23 ± 0.33 | – | – |
| RDKILTATIENNRVILEIDNARLA [KRT13] | 2.69 ± 0.29 | 2.83 ± 0.33 | – | – |
| AVGGRNAAGELPTVECYNPRTNEW [KLHL13] | 4.2 ± 0.13 | 4.33 ± 0.13 | – | – |
| TRIEKRIVITGDADIDHDQALAQA [EPB41L3] | 4.48 ± 0.27 | 4.72 ± 0.25 | – | – |
| LFEEPEDPSNRSFFSEIISSVSDV [PPP2R2C] | 4.24 ± 0.057 | 4.19 ± 0.19 | – | – |
| RLRALGERHTMDLTVEGFQSWMWR [TMEM120A] | 2.38 ± 0.27 | 2.58 ± 0.49 | – | – |
| HGHNIGKKMSCQQFIANLDQLNDG [PSD2] | 3.26 ± 0.24 | 3.29 ± 0.16 | – | – |
| SASSIKQILLEWCRSKTLGYQHVD [SMTNL2] | 2.22 ± 0.19 | 2.42 ± 0.35 | – | – |
| PGRPARLDQLLDMPAAGLAVQLRH [SPSB4] | 3.04 ± 0.36 | 3.33 ± 0.27 | – | – |
| FQELAGKELCAMSEEQFRQRSPLG [SPDEF] | 3.1 ± 0.42 | 3.59 ± 0.33 | – | – |
